Results from publication PMC9802656 (2022).

How the values were obtained:
[1] = biological target: SARS-CoV-2 S protein (entire S ectodomain) as used with m31A7 (SARS-CoV-2, UniProt P0DTC2 14-1213); assay: ELISA
[2] = biological target: SARS-CoV-2 S protein S1 (SARS-CoV-2); assay: ELISA
[3] = biological target: SARS-CoV-2 WT S protein expressed on HEK293T cells (SARS-CoV-2, UniProt P0DTC2); assay: FACS

B1: monoclonal antibody m31A7 (IgG) (antibody, V domains shown)
VH: EVQLQQSGPEMVKPGASVKISCKTSGYTFTEYTIYWVKQSHGKSLEWLGGINPNIGDTTYNQKFKGKATLTVDTSSSTAYMELRSLTSEDSAVYYCAREVYNYSFAYWGQGTLVTVSA
VL: DIVMSQSPSSLAVSVGEKVTMSCKSSQSLLYSSNQKNYLAWYQQKLGQTPKLLIYWASSRESGVPDRFTGSGSGTDFTLTISSVRAEDLAVYYCQQYYRYPLTFGVGTKLELK
[1]
  EC50: 31.2 pM
[2]
  EC50: 23.5 pM
[3]
  EC50: 68.5 pM
